Target: hEphA2 (human) (UniProt P29317)
Experiment: ELISA

hEphA2 (human), sequence (P29317 25-534 limits assumed): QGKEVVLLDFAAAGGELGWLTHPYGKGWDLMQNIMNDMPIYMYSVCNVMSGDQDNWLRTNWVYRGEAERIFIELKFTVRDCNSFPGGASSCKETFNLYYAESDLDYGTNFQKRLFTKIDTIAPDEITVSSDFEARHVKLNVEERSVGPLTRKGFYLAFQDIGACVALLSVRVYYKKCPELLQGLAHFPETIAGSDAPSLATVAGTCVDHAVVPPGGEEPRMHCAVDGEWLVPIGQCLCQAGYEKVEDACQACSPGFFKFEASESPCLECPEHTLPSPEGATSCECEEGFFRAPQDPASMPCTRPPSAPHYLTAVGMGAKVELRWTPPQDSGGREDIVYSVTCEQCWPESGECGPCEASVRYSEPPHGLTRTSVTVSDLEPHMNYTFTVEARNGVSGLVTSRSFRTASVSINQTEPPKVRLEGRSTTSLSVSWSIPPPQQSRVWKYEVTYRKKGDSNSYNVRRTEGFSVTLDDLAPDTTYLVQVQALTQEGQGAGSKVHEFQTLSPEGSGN

B1: 3F2 (antibody, from another filing, V domains shown)
VH: EVQLVESGGGVVRPGGSLRLSCAASGFTVSDYSMNWVRQAPGKGLEWIGFIRNKANAYTTEYSASVKGRFTISRDDSKNTLYLQMNSLKTEDTAVYYCTTYPRYHAMDSWGQGTMVTVSS
VL: AIQLTQSPSSLSASVGDRVTITCRASQSISNNLHWYLQKPGQSPQLLIYYGFQSISGVPSRFSGSGSGTDFTLTISSLQPEDFATYYCQQANSWPLTFGGGTKLEIK
- ELISA O.D. value: 0.453

Reference: patent US20060121042A1
